The target of the data set is von Willebrand factor (VWF) (Homo sapiens) (UniProt P04275). Put plainly: filter. To be noted: mAmCmGmAmAmCmUmGfCfCfCmUmC(6GLY)mGmAfCrGfCmAmCmAmGmAmCmGfUidT (6GLY = hexaethylene glycol linker); Bmax 60%; 2 mM CaCl2, 37 C.

A word on the Kd: it is the equilibrium constant for the complex coming apart.

As for ACGAACUGCCCUCGACGCACAGACGU [DTRI-009], the Kd turned out to be 0.011 µM.

For the origin of these results see patent US20190218553.
